Experiments:
human Trop-2 [1] = target: T1, human Trop-2 (human, UniProt P09758 27-323); test: cell binding assay on Trop-2-expressing cells (cell line not stated)
T1 construct: whole, on cells; Type-I transmembrane glycoprotein; also called EGP-1; epithelial glycoprotein-1
T1 sequence (looked up): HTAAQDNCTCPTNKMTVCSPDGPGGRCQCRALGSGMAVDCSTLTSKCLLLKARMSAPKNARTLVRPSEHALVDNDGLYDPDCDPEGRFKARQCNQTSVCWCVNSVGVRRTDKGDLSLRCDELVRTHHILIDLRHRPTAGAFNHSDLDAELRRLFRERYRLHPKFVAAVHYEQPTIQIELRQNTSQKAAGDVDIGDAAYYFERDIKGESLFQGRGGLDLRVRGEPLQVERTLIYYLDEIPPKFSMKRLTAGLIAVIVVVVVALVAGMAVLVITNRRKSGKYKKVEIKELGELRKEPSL

human Trop-2 [2] = target: T1, human Trop-2; test: cell binding on NCI-N87 cells, anti-mouse-HRP secondary, luminescence, 0.03 to 66 nM, 4 C

| Molecule | Kd (human Trop-2 [1]) [nM] | Kd (human Trop-2 [2]) [nM] |
| --- | --- | --- |
| hRS7-CL2-SN-38 (antibody) | 1.2 | – |
| hRS7-CL2A-SN-38 (antibody) | 1.2 | – |
| murine RS7 (antibody, V domains shown) VH: VKLQESGPELKKPGETVKISCKASGYTFTNYGMNWVKQAPGKGLKWMGWINTYTGEPTYTDDFKGRFAFSLETSATTAYLQINNLKSEDMATYFCARGGFGSSYWYFDVWGQGTTVTVSS VL: DIQLTQSHKFMSTSVGDRVSITCKASQDVSIAVAWYQQKPGQSPKLLIYSASYRYTGVPDRFTGSGSGTDFTFTISSVQAEDLAVYYCQQHYITPLTFGAGTKLELK | – | 0.57 |

— US20140377287A1 (published 2014)
